# Experimental data published in patent US20130323282A1.
# Key:
# [1] = target: CD81 MBP-LEL113-201 (maltose-binding protein linked to the CD81 large extracellular loop, residues 113 to 201), dimeric form (UniProt P60033); experiment: SPR; 1:1 model for dimer/trimer, two-state model for monomer
# [2] = target: CD81 MBP-LEL113-201 (maltose-binding protein linked to the CD81 large extracellular loop, residues 113 to 201), dimeric form (UniProt P60033); experiment: SPR; 1:1 Langmuir model
# Chain of UniProt P60033 (P60033 113-201 limits assumed): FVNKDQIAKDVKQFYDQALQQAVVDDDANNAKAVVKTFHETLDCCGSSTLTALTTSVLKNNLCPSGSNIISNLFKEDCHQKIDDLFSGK
Substance,fold higher affinity than the monomeric protein [1] [fold],fold higher affinity than the WT dimer [2] [fold]
"H77c WT E2661-his, dimer (from UniProt P27958 384-661) (ligand)",10,–
"H77c WT E2661-his, trimer (putative) (from UniProt P27958 384-661) (ligand)",10,–
"H77c ΔHVR1+2+3 E2661-his, dimer (from UniProt P27958 384-661) (ligand)",10,2
"H77c ΔHVR1+2+3 E2661-his, trimer (putative) (from UniProt P27958 384-661) (ligand)",10,–
